Measurements as given in US6303339A, “DNA segments encoding autoimmune polypeptide epitopes of Ro/ss-A antigen” (Board of Regents, The University of Texas System, priority 1991, dated 2001).

Assays:
[1] = cited from earlier work
[2] = system: anti-Ro/SS-A antibodies (human autoimmune serum); experiment: ELISA, immobilized peptide reacted with human autoimmune anti-Ro/SS-A serum; assay type: binding
Excerpt: Human antisera. Anti-Ro/SS-A sera were selected by the presence of a single precipitin line in Ouchterlony analysis having complete identify with prototypic sera used in studies of Lieu et al. (17). The absence of antibodies to other nuclear antigens such as La/SS-B, U1 -RNP and Sm was also confirmed by ELISA. Monospecific anti-Sm and anti-La/SS-B human autoimmune sera were originally obtained from the laboratory of Dr. E. M. Tan (Scripps Research Institute, La Jolla, Calif.).
The native Ro/SS-A antigen (5 ug/ml) or synthetic peptide (10 ug/ml) in PBS was added to wells of a microtiter plate and incubated 16 hours at 4° C. The plates were washed with PBS-Tween and the remaining sites were coated with 1% BSA for 1 hour. After washing 3 times with PBS-Tween, sera diluted with 1% BSA, 0.5% bovine gamma globulin (BGG) in PBS-Tween were added and incubated for 2 hours. The plates were then washed 3 times with PBS-Tween. Peroxidase conjugated goat-anti-human IgG diluted 1:3000 in PBS-Tween containing 1% BSA and 0.5% BGG was added and incubated for 2 hours at room temperature. The plates were washed in a similar manner. […] The optical density was measured using a Titertek Multiskan brand ELISA plate reader.

binding to anti-Ro/SS-A serum in ELISA (in words) [2]	Molecule	isoelectric point measured from the native purified protein [1]
–	native purified protein: native 60 kD Ro protein purified from the human Wil-2 cell line	4.67
did not react	ribonuclease A (protein, UniProt P61823 27-150, looked up, control polypeptide in ELISA) Ribonuclease pancreatic: KETAAAKFERQHMDSSTSAASSSNYCNQMMKSRNLTKDRCKPVNTFVHESLADVQAVCSQKNVACKNGQTNCYQSYSTMSITDCRETGSSKYPNCAYKTTQANKHIIVACEGNPYVPVHFDASV	–
